Experiment: yeast display, Sf9 membrane polyspecificity reagent, FACS + sequencing; frameworks hold sequencing errors
How it was run: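 Nanobodies from a synthetic yeast display library (Saccharomyces cerevisiae BJ5465), induced 36–48 hours with galactose, were stained 1 hour at 4 °C with 10% biotinylated, detergent-solubilized Sf9 membrane reagent, enriched on streptavidin microbeads, then FACS-sorted. Anti-HA (expression) and streptavidin (reagent binding) fluorescence set low and high (top ~1%) gates. Polyreactivity labels come from the gate of origin. Genes were colony-PCR amplified, MiSeq 2 × 250 sequenced and filtered by CDR length.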

Sequence | polyreactivity (PSR sort gate)
QVQLVESGGGLVQAGGSLRLSCAASGRTFAPYTMGWYRQAPGKERELVAVITRRDGRTYYADSVKGRFTISRDNAKNTVYLQMNSLKPEDTAVYYCCFFPADWYRPVRDLRTDSDYWGQGTQVTVSS | low polyreactivity
QVQLVESGGGLVQAGGSLRLSCAASGRTFAPYVMGWYRQAPGKERELVAAITWSGGSTYYADSVKGRFTISRDNAKNTVYLQMNSLKPEDTALYYCAVKGAGGPKYDYWGQGTQVTVSS | high polyreactivity
QVQLVESGGGLVQAGGSLRLSCAASGRTFAQYAMGWYRQAPGKERELVAAITKRGGTTYYADSVKGRFTISRDNAKNTVYLQMNSLKPEDTAVYYCKAGGVVPSTYYWGQGTQVTVSS | high polyreactivity
QVQLVESGGGLVQAGGSLRLSCAASGRTFARNAMGWYRPAPGKERELVAAITGRGGSTHYADSVKGRFTISRDNAKNTVYLKMNSLKPEDTAVYYCAADYRYNRGSTSNKDYDYWGQGTQVTVSS | low polyreactivity
QVQLVESGGGLVQAGGSLRLSCAASGRTFARNAMGWYRQAPGKERELGAAISSSGGSTYYADSVKGRFTISRDNAKNTVYLQMNSLKPEDTAVYYCDARSRHAYGYWGQGTQVTVSS | high polyreactivity
QVQLVESGGGLVQAGGSLRLSCAASGRTFARNAMGWYRQAPGKERELVAAITSIGTRTYYADSVKARFTISRDNAMNTVYLQMNSLKREDTAVYYCNKKRTADYDYWGQGTQVTVSS | low polyreactivity
QVQLVESGGGLVQAGGSLRLSCAASGRTFARYAMGWYRPAPGKERELVAAISSSGGSTYYADSVKWRFTISRDNAKNTVYLQMNSLKPEDTAVYYCVTYRNWWYDFWGQGTQVTGSS | high polyreactivity
QVQLVESGGGLVQAGGSLRLSCAASGRTFARYVMGWYRQAPGKERELVAAINSGGTTYYADSVKGRFTISRDNAKNTVYLQMNSLKPEDTAVYYCNARRGHYAYDYWGQGTQVTLSS | high polyreactivity
QVQLVESGGGLVQAGGSLRLSCAASGRTFASNAMGWYRQAPGKERELVAAITISGGRTYYADSVKGRFTISRDNAKNTVYLQMNSLKPEDTAVYYCAAAKHSWRPSYYWGGYWGQGTQVTVSS | low polyreactivity
QVQLVESGGGLVQAGGSLRLSCAASGRTFASYARGWYRQAPGKERELVAVITRGVRTYYADSVKGRFTISRDNAKNTVYLQMNSLKPEDTAVYYCAKERYNANYDTSLYDYWGQGTQVTVSS | low polyreactivity
QVQLVESGGGLVQAGGSLRLSCAASGRTFATNTMGWSRQAPGKERELVAAITFSGGSTYYADSVKGRFTISRDNAKNTVYLQMNSLKPEDTAVYYCNVRSPYYSYRYRYGYWGQGTQVTVSS | high polyreactivity
QVQLVESGGGLVQAGGSLRLSCAASGRTFATNTMGWYRQAPGKERELVAAITFSGGSTYYADSVKGRFTISRDNAKNTVYLQMNSLKREDTAVYYCNVRSPYYSYRYRYGYWGHGTQVTVSS | high polyreactivity
QVQLVESGGGLVQAGGSLRLSCAASGRTFATYAMGWYRQEPGKERELVAAISTSGGSTYYADSVKGRFTISRDNAKNTVYLQMNSLKPEDTAVYYCAAVLSWRGYTCPVYAFDYWGQGTQVTVSS | high polyreactivity
QVQLVESGGGLVQAGGSLRLSCAASGRTFATYMGWYRQAPGKERELVAGITRGGNTNYADSVKGRFTISRDNAKNTVYLQMNSLKPEDTAVYYCAKLKYRSHYSWGQGTQVTVSS | high polyreactivity
QVQLVESGGGLVQAGGSLRLSCAASGRTFAVYAMGWYRQAPGKERELVAAITFGGGRTYYADSVKGRFTISRDNAKITVYLQMNSLKPEDTAVYYCAADYYGTDYDYRGQGTQVTVSS | low polyreactivity
QVQLVESGGGLVQAGGSLRLSCAASGRTFAWYAMAWYRQAPGKERELVATITSRGGSTYYADSVKGRFTISRDNAKNTVYLQMNSLKPEYTAVYYCAAQSFWRPHQYDYWGQGTQVTVSS | low polyreactivity
QVQLVESGGGLVQAGGSLRLSCAASGRTFAWYAMGWYRQAPGKERELVAAISNVGSTYYADSVKGRFTISRDNAKNTVYLQMNSLKPEDTAVYYCNADAVSTDGREYWGQGTQVTVSS | low polyreactivity
QVQLVESGGGLVQAGGSLRLSCAASGRTFAYNAMGWYRQAPGKERELVAAISRSGGSTYYADSVKGRFTISRDNAKNTVYLQMNSLKPEDTAVYYCNKVTHSYLYFAAGDYWGLGTQVTVSS | high polyreactivity
QVQLVESGGGLVQAGGSLRLSCAASGRTFAYNAMGWYRQAPGTERELVAAITGSGGRTYYADSVKGRFTLSRDNAKYTVYLQMNSLIPEDTAVYYCAVGLPSRYDYWGQGTQVTVSS | low polyreactivity
QVQLVESGGGLVQAGGSLRLSCAASGRTFAYNTMGWYRQAPGKERELVAAISTSGVRTFYADSVKGRFTISRDNAKNTVYLQMNSLKPEETAVYSYDWGQGTQVTVSS | low polyreactivity
QVQLVESGGGLVQAGGSLRLSCAASGRTFAYYAMGWYRPAPGKERELVATITRSGGITSYADSVKGRFTISRDNAKNTVYLQMSSLKPADTAVYYCNTGYSNRLHDYWGQGTQVTVSS | high polyreactivity
QVQLVESGGGLVQAGGSLRLSCAASGRTFAYYAMGWYRQAPGKERELVAAISTNGGTYYADSVKGRFTISRDNAKNTVYFQLNSLKPEDTAVYSCAAYTSYDVDYWGQGTQVTVSS | low polyreactivity
QVQLVESGGGLVQAGGSLRLSCAASGRTFDDYAMGGYSQAPGKERELVAAISWSGSSTYYADSVKGRFTISRDNAKNTVYLQMNSLKPEDTAVYYCAADSIRTLLTGNTVYIWYGYWGQGNQVTVSS | low polyreactivity
QVQLVESGGGLVQAGGSLRLSCAASGRTFDFYAMGWYRQAPGKERELDAAITFSTGSTTYADSVKGRFTISRDNAKNTVYLQMNSLKPEDTAVYYCNAYLYRKFGYRAYDYWGQGTQVTVSS | low polyreactivity
QVQLVESGGGLVQAGGSLRLSCAASGRTFDGYAMGWYRQAPGKERELVAAISGSGGRTYYADSVKGRFTISRDNAKNTVYLQMNSLKPEVTAVYYCRGYYKYYPDEYDYWGQGTQVTVSS | high polyreactivity
QVQLVESGGGLVQAGGSLRLSCAASGRTFDGYDMGSYRQAPGKERELVAAINVVGGSTYYADSVKGRFTISRDNAKNTVYLLMNSLKPEDTEVYYCAARRSYLTNFRRYYKMDYWGQGTQVTVAS | low polyreactivity
QVQLVESGGGLVQAGGSLRLSCAASGRTFDLNAMGWYRQAPGKERELVAGISSSGGRTYYADSVKGRFTISRDNAKNTVYLQMNSLKPEDTAVYYCAKVYPSYVLRKYDYWGQGTQVTVSS | high polyreactivity
QVQLVESGGGLVQAGGSLRLSCAASGRTFDPYAMGWYRQAPGKERELVAAITSGDDTYYADSVKGRFTISRDTAKNTVYLQMNSLKPEETAVYFCAAASFTPDYYSHDYWGQGTQVTVSS | low polyreactivity
QVQLVESGGGLVQAGGSLRLSCAASGRTFDPYARGGYRQAPGKERELVASISRGGSTYADSVKGRFTISRDNAKNTVYLQMNSLKPEDTAVYYCNTSLYTEGDAMDYWGQGTQVTVSS | low polyreactivity
QVQLVESGGGLVQAGGSLRLSCAASGRTFDRYAMGWYRQAPGKERELVAAISRGGSTNYADSVKGRFTISRDNAKNTVYLQMNSLKPEDTAVYYCAARVSFLHLRRAYDYWGQGTQVTVSS | high polyreactivity

Source: the nanobody polyreactivity screen of Harvey et al. (2022)
